Legend:
Assay in all cases: holdup assay
Set-up in all cases: key: below the threshold = too weak to quantify, mostly under pKd 3.1 to 4
APBA3_1, O96018 = molecular target: T1, APBA3_1, O96018
T1 sequence (O96018 389-490, limits assumed, looked up): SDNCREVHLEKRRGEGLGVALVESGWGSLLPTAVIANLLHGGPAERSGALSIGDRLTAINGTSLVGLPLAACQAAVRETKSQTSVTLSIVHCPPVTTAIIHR

CARD11, Q9BXL7 = molecular target: T2, CARD11, Q9BXL7
T2 sequence (Q9BXL7 662-765, limits assumed, looked up): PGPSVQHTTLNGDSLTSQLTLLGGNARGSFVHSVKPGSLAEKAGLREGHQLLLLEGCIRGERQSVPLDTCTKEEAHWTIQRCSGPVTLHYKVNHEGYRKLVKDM

DLG2_2, Q15700 = molecular target: DLG2_2, Q15700
DLG4_3, P78352 = molecular target: DLG4_3, P78352
DVL3, Q92997 = molecular target: T3, DVL3, Q92997
T3 sequence (Q92997 244-331, limits assumed, looked up): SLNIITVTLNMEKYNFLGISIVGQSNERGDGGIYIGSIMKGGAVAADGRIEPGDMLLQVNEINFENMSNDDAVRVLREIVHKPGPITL

FRMPD3, Q5JV73 = molecular target: FRMPD3, Q5JV73
GOPC, Q9HD26 = molecular target: GOPC, Q9HD26
GORASP2, Q9H8Y8 = molecular target: GORASP2, Q9H8Y8
GRIP1_5, Q9Y3R0 = molecular target: T4, GRIP1_5, Q9Y3R0
T4 sequence (Q9Y3R0 568-668, limits assumed, looked up): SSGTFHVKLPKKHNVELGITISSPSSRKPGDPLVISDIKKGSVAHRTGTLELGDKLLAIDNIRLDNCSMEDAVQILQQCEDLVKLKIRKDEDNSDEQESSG

GRIP2_4, Q9C0E4 = molecular target: GRIP2_4, Q9C0E4
GRIP2_6, Q9C0E4 = molecular target: GRIP2_6, Q9C0E4
HTRA1, Q92743 = molecular target: HTRA1, Q92743
HTRA2, O43464 = molecular target: HTRA2, O43464
HTRA3, P83110 = molecular target: T5, HTRA3, P83110
T5 sequence (P83110 354-453, limits assumed, looked up): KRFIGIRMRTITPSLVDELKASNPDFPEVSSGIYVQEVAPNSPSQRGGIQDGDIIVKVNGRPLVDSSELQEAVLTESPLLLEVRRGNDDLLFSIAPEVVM

Inadl_6, Q8NI35 = molecular target: Inadl_6, Q8NI35
LAP2, Q96RT1 = molecular target: LAP2, Q96RT1
LNX1_1, Q8TBB1 = molecular target: LNX1_1, Q8TBB1
LNX1_2, Q8TBB1 = molecular target: LNX1_2, Q8TBB1
LNX2_3, Q8N448 = molecular target: T6, LNX2_3, Q8N448
T6 sequence (Q8N448 463-564, limits assumed, looked up): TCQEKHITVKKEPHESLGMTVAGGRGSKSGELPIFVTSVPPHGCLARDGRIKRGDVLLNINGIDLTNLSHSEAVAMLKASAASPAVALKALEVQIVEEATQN

LRRC7, Q96NW7 = molecular target: T7, LRRC7, Q96NW7
T7 sequence (Q96NW7 1440-1537, limits assumed, looked up): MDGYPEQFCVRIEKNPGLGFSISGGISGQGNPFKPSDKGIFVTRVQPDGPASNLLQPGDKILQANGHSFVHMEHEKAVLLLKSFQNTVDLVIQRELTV

MAGI3_2, Q5TCQ9 = molecular target: MAGI3_2, Q5TCQ9
MPP7, Q5T2T1 = molecular target: T8, MPP7, Q5T2T1
T8 sequence (Q5T2T1 134-230, limits assumed, looked up): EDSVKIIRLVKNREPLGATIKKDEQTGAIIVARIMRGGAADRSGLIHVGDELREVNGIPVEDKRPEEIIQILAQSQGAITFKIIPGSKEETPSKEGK

NHERF4_1, Q86UT5-2 = molecular target: NHERF4_1, Q86UT5-2
PDZRN4_1, Q6ZMN7 = molecular target: PDZRN4_1, Q6ZMN7
SNTB1, Q13884 = molecular target: T9, SNTB1, Q13884
T9 sequence (Q13884 107-205, limits assumed, looked up): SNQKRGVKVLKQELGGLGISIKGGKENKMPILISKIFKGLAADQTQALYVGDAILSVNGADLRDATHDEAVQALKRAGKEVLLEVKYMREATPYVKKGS

TJP1_3, Q07157 = molecular target: TJP1_3, Q07157
TJP3_3, O95049 = molecular target: T10, TJP3_3, O95049
T10 sequence (O95049 375-456, limits assumed, looked up): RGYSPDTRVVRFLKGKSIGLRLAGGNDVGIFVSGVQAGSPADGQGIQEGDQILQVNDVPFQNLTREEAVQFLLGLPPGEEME

[1] = plain residues with an end cap or a label only (N-terminal biotin on a linker: ahx)
[2] = plain residues with an end cap or a label only (N-terminal biotin on a linker: ttds)

Sequence of LNX1_2, Q8TBB1 (Q8TBB1 371-470): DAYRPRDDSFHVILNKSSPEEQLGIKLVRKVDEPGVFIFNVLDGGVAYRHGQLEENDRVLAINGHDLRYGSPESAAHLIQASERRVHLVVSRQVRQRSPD
Sequence of PDZRN4_1, Q6ZMN7 (Q6ZMN7 213-318): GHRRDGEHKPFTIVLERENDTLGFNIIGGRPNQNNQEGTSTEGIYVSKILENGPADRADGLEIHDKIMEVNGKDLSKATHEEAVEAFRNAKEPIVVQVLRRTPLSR
Sequence of LNX1_1, Q8TBB1 (Q8TBB1 261-371): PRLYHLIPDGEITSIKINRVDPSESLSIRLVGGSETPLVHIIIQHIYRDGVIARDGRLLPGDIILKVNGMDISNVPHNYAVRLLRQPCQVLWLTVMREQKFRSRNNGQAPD
Sequence of NHERF4_1, Q86UT5-2 (Q86UT5 other isoform, or with tags, fused parts or gaps): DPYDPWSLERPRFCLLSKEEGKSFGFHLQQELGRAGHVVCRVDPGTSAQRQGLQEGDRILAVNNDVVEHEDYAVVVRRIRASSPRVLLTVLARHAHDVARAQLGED
Sequence of FRMPD3, Q5JV73 (Q5JV73 12-100): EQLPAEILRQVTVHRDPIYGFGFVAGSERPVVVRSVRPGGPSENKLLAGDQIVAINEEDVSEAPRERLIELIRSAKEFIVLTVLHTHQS
Sequence of DLG2_2, Q15700 (Q15700 189-283): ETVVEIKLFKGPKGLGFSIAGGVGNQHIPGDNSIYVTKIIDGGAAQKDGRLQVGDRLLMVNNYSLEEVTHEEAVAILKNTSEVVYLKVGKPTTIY
Sequence of TJP1_3, Q07157 (Q07157 416-512): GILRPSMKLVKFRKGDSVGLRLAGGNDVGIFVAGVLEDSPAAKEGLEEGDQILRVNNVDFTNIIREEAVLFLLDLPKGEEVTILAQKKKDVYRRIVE
Sequence of HTRA2, O43464 (O43464 355-458): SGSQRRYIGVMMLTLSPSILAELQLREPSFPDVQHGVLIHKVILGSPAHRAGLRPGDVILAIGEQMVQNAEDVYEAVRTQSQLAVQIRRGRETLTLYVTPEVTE
Sequence of LAP2, Q96RT1 (Q96RT1 other isoform, or with tags, fused parts or gaps): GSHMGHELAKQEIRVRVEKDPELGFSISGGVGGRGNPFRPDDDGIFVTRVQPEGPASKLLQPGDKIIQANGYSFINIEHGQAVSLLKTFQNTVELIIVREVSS
Sequence of Inadl_6, Q8NI35 (Q8NI35 1058-1167): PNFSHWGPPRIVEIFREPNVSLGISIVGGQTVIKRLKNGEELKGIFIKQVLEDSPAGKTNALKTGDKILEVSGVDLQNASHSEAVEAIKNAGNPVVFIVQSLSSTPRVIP
Sequence of DLG4_3, P78352 (P78352 306-403): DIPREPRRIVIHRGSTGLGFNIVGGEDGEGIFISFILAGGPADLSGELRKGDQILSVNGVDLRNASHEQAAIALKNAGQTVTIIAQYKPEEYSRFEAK
Sequence of MAGI3_2, Q5TCQ9 (Q5TCQ9 398-503): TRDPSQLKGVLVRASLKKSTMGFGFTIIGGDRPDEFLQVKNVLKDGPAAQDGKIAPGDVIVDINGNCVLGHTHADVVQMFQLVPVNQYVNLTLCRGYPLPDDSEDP
Sequence of GRIP2_4, Q9C0E4 (Q9C0E4 446-548): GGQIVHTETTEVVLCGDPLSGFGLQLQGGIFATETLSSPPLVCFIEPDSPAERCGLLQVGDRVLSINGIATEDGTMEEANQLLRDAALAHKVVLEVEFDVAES
Sequence of HTRA1, Q92743 (Q92743 360-477): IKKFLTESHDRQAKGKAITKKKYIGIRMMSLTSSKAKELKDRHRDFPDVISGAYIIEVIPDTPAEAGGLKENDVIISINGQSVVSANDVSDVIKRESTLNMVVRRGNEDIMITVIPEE
Sequence of GRIP2_6, Q9C0E4 (Q9C0E4 648-740): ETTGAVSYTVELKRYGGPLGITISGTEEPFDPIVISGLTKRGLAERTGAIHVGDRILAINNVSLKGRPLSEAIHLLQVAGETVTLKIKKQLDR

With KKNKDKEYYV [NRXN1, Q9ULB1] the pKd (APBA3_1, O96018; [1]) was “below the threshold”, the pKd (CARD11, Q9BXL7; [1]) was “below the threshold” and the pKd (DLG2_2, Q15700; [1]) was “below the threshold”. The pKd (DLG4_3, P78352; [1]) was “below the threshold”, the pKd (DVL3, Q92997; [1]) was 3.61 and the pKd (FRMPD3, Q5JV73; [1]) was 3.5. The pKd (GOPC, Q9HD26; [1]) was “below the threshold”, the pKd (GORASP2, Q9H8Y8; [1]) was 4.33 and the pKd (GRIP1_5, Q9Y3R0; [1]) was “below the threshold”. The pKd (GRIP2_4, Q9C0E4; [1]) was “below the threshold”, the pKd (GRIP2_6, Q9C0E4; [1]) was 3.91 and the pKd (HTRA1, Q92743; [1]) was 4.84. The pKd (HTRA2, O43464; [1]) was “below the threshold”, the pKd (HTRA3, P83110; [1]) was 4.2 and the pKd (Inadl_6, Q8NI35; [1]) was “below the threshold”. For the same binder, the pKd (LAP2, Q96RT1; [1]) was “below the threshold”, the pKd (LNX1_1, Q8TBB1; [1]) was “below the threshold” and the pKd (LNX1_2, Q8TBB1; [1]) was 3.58. The pKd (LNX2_3, Q8N448; [1]) was “below the threshold”, the pKd (LRRC7, Q96NW7; [1]) was “below the threshold” and the pKd (MAGI3_2, Q5TCQ9; [1]) was 4.6. For the same binder, the pKd (MPP7, Q5T2T1; [1]) was 4.29, the pKd (NHERF4_1, Q86UT5-2; [1]) was “below the threshold” and the pKd (PDZRN4_1, Q6ZMN7; [1]) was “below the threshold”. For the same binder, the pKd (SNTB1, Q13884; [1]) was “below the threshold”, the pKd (TJP1_3, Q07157; [1]) was “below the threshold” and the pKd (TJP3_3, O95049; [1]) was “below the threshold”.

CNTVTVETVV [MAS1, P04201] was tested, and the pKd (APBA3_1, O96018; [2]) was “below the threshold”, the pKd (CARD11, Q9BXL7; [2]) was “below the threshold” and the pKd (DLG2_2, Q15700; [2]) was 4.19. The pKd (DLG4_3, P78352; [2]) was “below the threshold”, the pKd (DVL3, Q92997; [2]) was “below the threshold” and the pKd (FRMPD3, Q5JV73; [2]) was “below the threshold”. The pKd (GOPC, Q9HD26; [2]) was “below the threshold”, the pKd (GORASP2, Q9H8Y8; [2]) was “below the threshold” and the pKd (GRIP1_5, Q9Y3R0; [2]) was 3.55. The pKd (GRIP2_4, Q9C0E4; [2]) was 3.55, the pKd (GRIP2_6, Q9C0E4; [2]) was “below the threshold” and the pKd (HTRA1, Q92743; [2]) was 3.61. The pKd (HTRA2, O43464; [2]) was “below the threshold”, the pKd (HTRA3, P83110; [2]) was “below the threshold” and the pKd (Inadl_6, Q8NI35; [2]) was “below the threshold”. The pKd (LAP2, Q96RT1; [2]) was 3.48, the pKd (LNX1_1, Q8TBB1; [2]) was 3.52 and the pKd (LNX1_2, Q8TBB1; [2]) was “below the threshold”. The pKd (LNX2_3, Q8N448; [2]) was “below the threshold”, the pKd (LRRC7, Q96NW7; [2]) was “below the threshold” and the pKd (MAGI3_2, Q5TCQ9; [2]) was 3.78. The pKd (MPP7, Q5T2T1; [2]) was “below the threshold”, the pKd (NHERF4_1, Q86UT5-2; [2]) was “below the threshold” and the pKd (PDZRN4_1, Q6ZMN7; [2]) was “below the threshold”. For the same binder, the pKd (SNTB1, Q13884; [2]) was 4.29, the pKd (TJP1_3, Q07157; [2]) was “below the threshold” and the pKd (TJP3_3, O95049; [2]) was 3.7.

With QPGTPTRTAV [MAP2K2, P36507] the pKd (APBA3_1, O96018; [2]) was “below the threshold”, the pKd (CARD11, Q9BXL7; [2]) was “below the threshold” and the pKd (DLG2_2, Q15700; [2]) was 3.87. The pKd (DLG4_3, P78352; [2]) was “below the threshold”, the pKd (DVL3, Q92997; [2]) was “below the threshold” and the pKd (FRMPD3, Q5JV73; [2]) was “below the threshold”. The pKd (GOPC, Q9HD26; [2]) was “below the threshold”, the pKd (GORASP2, Q9H8Y8; [2]) was “below the threshold” and the pKd (GRIP1_5, Q9Y3R0; [2]) was “below the threshold”. The pKd (GRIP2_4, Q9C0E4; [2]) was “below the threshold”, the pKd (GRIP2_6, Q9C0E4; [2]) was “below the threshold” and the pKd (HTRA1, Q92743; [2]) was “below the threshold”. The pKd (HTRA2, O43464; [2]) was “below the threshold”, the pKd (HTRA3, P83110; [2]) was 3.5 and the pKd (Inadl_6, Q8NI35; [2]) was “below the threshold”. For the same binder, the pKd (LAP2, Q96RT1; [2]) was “below the threshold”, the pKd (LNX1_1, Q8TBB1; [2]) was 3.6 and the pKd (LNX1_2, Q8TBB1; [2]) was 3.61. For the same binder, the pKd (LNX2_3, Q8N448; [2]) was “below the threshold”, the pKd (LRRC7, Q96NW7; [2]) was “below the threshold” and the pKd (MAGI3_2, Q5TCQ9; [2]) was 3.84. For the same binder, the pKd (MPP7, Q5T2T1; [2]) was “below the threshold”, the pKd (NHERF4_1, Q86UT5-2; [2]) was 3.52 and the pKd (PDZRN4_1, Q6ZMN7; [2]) was “below the threshold”. For the same binder, the pKd (SNTB1, Q13884; [2]) was “below the threshold”, the pKd (TJP1_3, Q07157; [2]) was “below the threshold” and the pKd (TJP3_3, O95049; [2]) was 3.57.

RRVRKLPSTTL [RPS6KA1, Q15418] was tested, and the pKd (APBA3_1, O96018; [2]) was “below the threshold”, the pKd (CARD11, Q9BXL7; [2]) was “below the threshold” and the pKd (DLG2_2, Q15700; [2]) was “below the threshold”. The pKd (DLG4_3, P78352; [2]) was “below the threshold”, the pKd (DVL3, Q92997; [2]) was “below the threshold” and the pKd (FRMPD3, Q5JV73; [2]) was “below the threshold”. For the same binder, the pKd (GOPC, Q9HD26; [2]) was 4.96, the pKd (GORASP2, Q9H8Y8; [2]) was 3.59 and the pKd (GRIP1_5, Q9Y3R0; [2]) was 3.52. For the same binder, the pKd (GRIP2_4, Q9C0E4; [2]) was “below the threshold”, the pKd (GRIP2_6, Q9C0E4; [2]) was “below the threshold” and the pKd (HTRA1, Q92743; [2]) was 4.09. The pKd (HTRA2, O43464; [2]) was “below the threshold”, the pKd (HTRA3, P83110; [2]) was “below the threshold” and the pKd (Inadl_6, Q8NI35; [2]) was “below the threshold”. For the same binder, the pKd (LAP2, Q96RT1; [2]) was “below the threshold”, the pKd (LNX1_1, Q8TBB1; [2]) was 3.76 and the pKd (LNX1_2, Q8TBB1; [2]) was 3.52. It also gave a pKd (LNX2_3, Q8N448; [2]) of 3.71, a pKd (LRRC7, Q96NW7; [2]) of 3.55 and a pKd (MAGI3_2, Q5TCQ9; [2]) of 4.23. For the same binder, the pKd (MPP7, Q5T2T1; [2]) was 3.61, the pKd (NHERF4_1, Q86UT5-2; [2]) was 3.57 and the pKd (PDZRN4_1, Q6ZMN7; [2]) was 4.13. For the same binder, the pKd (SNTB1, Q13884; [2]) was 4.14, the pKd (TJP1_3, Q07157; [2]) was “below the threshold” and the pKd (TJP3_3, O95049; [2]) was 3.59.

— publication PMC9482650, “Quantitative fragmentomics allow affinity mapping of interactomes” (Nature Communications, 2022)
